In US20240317890A1 (INSTITUT CURIE, published 2024):

B1: anti-HER2 humanized synthetic single domain antibody sdAb no 6 (VHH)
VHH: EVQLQASGGGFVQPGGSLRLSCAASGRGYTGTTMGWFRQAPGKEREFVSAISWTSNQTSYYADSVKGRFTISRDNSKNTVYLQMNSLRAEDTATYYCAMMPLPRWKGYWGQGTQVTVSS
notes: Purified sdAb in BLI; Any tag is not described for this assay; also called sdAb 6
B2: anti-HER2 humanized synthetic single domain antibody sdAb no 1 (VHH)
VHH: EVQLQASGGGFVQPGGSLRLSCAASGATSNISNMGWFRQAPGKEREFVSAISRAESRPLYYADSVKGRFTISRDNSKNTVYLQMNSLRAEDTATYYCAYMPLVRHKAYWGQGTQVTVSS
notes: Purified sdAb in BLI; also called sdAb 1; hsdAb1
B3: anti-HER2 humanized synthetic single domain antibody sdAb no 2 (VHH)
VHH: EVQLQASGGGFVQPGGSLRLSCAASGDSYNESSMGWFRQAPGKEREFVSAISARGNHPLYYADSVKGRFTISRDNSKNTVYLQMNSLRAEDTATYYCASMPMPKWKKYWGQGTQVTVSS
notes: Purified sdAb in BLI; also called sdAb 2; hsdAb 2
B4: anti-HER2 humanized synthetic single domain antibody sdAb no 4 (VHH)
VHH: EVQLQASGGGFVQPGGSLRLSCAASGYTSRESGMGWFRQAPGKEREFVSAISRDQDGISYYADSVKGRFTISRDNSKNTVYLQMNSLRAEDTATYYCAMIPLTRNAKYWGQGTQVTVSS
notes: Purified sdAb in BLI; Any tag is not described for this assay; also called sdAb 4
B5: anti-HER2 humanized synthetic single domain antibody sdAb no 5 (VHH)
VHH: EVQLQASGGGFVQPGGSLRLSCAASGYTFSEETMGWFRQAPGKEREFVSAISWNHTFFEYYADSVKGRFTISRDNSKNTVYLQMNSLRAEDTATYYCAVTPLPPNKAYWGQGTQVTVSS
notes: Purified sdAb in BLI; also called sdAb 5; hsdAb 5

Target: T1, recombinant human Her2/ErbB2 Fc Tag (ACROBiosystems) (human, UniProt P04626 23-652)
T1 construct: Bought product; Captured on protein A biosensors; also called HER2-Fc; not shown: Fc tag of the bought product
Experiment: BLI (Octet-HTX), HER2-Fc captured on protein A biosensors, sdAb in solution, 37 C
From the text: Affinity measurements: Affinity measurements can be done by surface plasmon resonance (for example as detailed in Moutel, Sandrine et al. “NaLi-H1: A universal synthetic library of humanized nanobodies providing highly functional antibodies and intrabodies.” eLife vol. 5 e16228. 19 Jul. 2016, doi:10.7554/eLife.16228). More particularly, binding affinities of selected hs2dAb fused to a 10HIS tag measured by surface plasmon resonance single cycle kinetics method. Dissociation equilibrium constant KD corresponds to the ratio between off-rate and on-rate kinetic constant Koff/Kₒₙ. […] Affinity measurements were also performed on an Octet-HTX (Sartorius) by bio-Layer Interferometry (BLI) which is an optical technique for measuring macromolecular interactions by analyzing interference patterns of white light reflected from the surface of a biosensor tip. BLI experiments were used to determine the kinetics and affinity of molecular interactions. Biosensors with proteinA were used to capture recombinant human Her2/ErbB2 Fc Tag (ACROBiosystems), the sensors were then dipped in wells containing purified sdAb to measure kinetics at 37° C.
Affinity measurement were also performed using BLI as above detailed.

Row | Kd | koff | kon | Binder
1 | 8.4 nM | 0.0066 s⁻¹ | 780000 M⁻¹ s⁻¹ | B1
2 | 4.6 nM | 0.004 s⁻¹ | 880000 M⁻¹ s⁻¹ | B2
3 | 4.1 nM | 0.0049 s⁻¹ | 1.2e+06 M⁻¹ s⁻¹ | B3
4 | 5.2 nM | 0.0076 s⁻¹ | 1.47e+06 M⁻¹ s⁻¹ | B4
5 | 33.3 nM | 0.0015 s⁻¹ | 44000 M⁻¹ s⁻¹ | B5
